Measured values: patent publication US20130177579A1 (BIOALLIANCE C V, published 2013)
Blank lines part the entries; values can stand above or below the binder they belong to.

How the values were obtained:
[1] = target: human transferrin receptor expressed by nonhematopoietic cancer cells (human) (UniProt P02786); test: FACS, A549 cells, 1X
[2] = target: human transferrin receptor expressed by nonhematopoietic cancer cells (human) (UniProt P02786); test: FACS, DU145 cells, 1X
[3] = target: human transferrin receptor expressed by nonhematopoietic cancer cells (human) (UniProt P02786); test: FACS, OMC-3 cells, 1X
[4] = target: human transferrin receptor expressed by nonhematopoietic cancer cells (human) (UniProt P02786); test: FACS, A549 cells, 1/5X
[5] = target: human transferrin receptor expressed by nonhematopoietic cancer cells (human) (UniProt P02786); test: FACS, Panc-1 cells, 1X
[6] = target: human transferrin receptor expressed by nonhematopoietic cancer cells (human) (UniProt P02786); test: FACS, DU145 cells, 1/5X
[7] = target: human transferrin receptor expressed by nonhematopoietic cancer cells (human) (UniProt P02786); test: FACS, SK-OV-3 cells, 1X
[8] = target: human transferrin receptor expressed by nonhematopoietic cancer cells (human) (UniProt P02786); test: FACS, Kato III cells, 1X
[9] = target: human transferrin receptor expressed by nonhematopoietic cancer cells (human) (UniProt P02786); test: FACS, Panc-1 cells, 1/5X
[10] = target: human transferrin receptor expressed by nonhematopoietic cancer cells (human) (UniProt P02786); test: FACS, H727 cells, 1x
[11] = target: human transferrin receptor expressed by nonhematopoietic cancer cells (human) (UniProt P02786); test: FACS, WiDr cells, 1x
[12] = target: human transferrin receptor expressed by nonhematopoietic cancer cells (human) (UniProt P02786); test: FACS, DLD-1 cells, 1x
[13] = target: human transferrin receptor expressed by nonhematopoietic cancer cells (human) (UniProt P02786); test: FACS, DU145 cells, 1x
[14] = target: human transferrin receptor expressed by nonhematopoietic cancer cells (human) (UniProt P02786); test: FACS, OMC-3 cells, 1x
[15] = target: human transferrin receptor expressed by nonhematopoietic cancer cells (human) (UniProt P02786); test: FACS, H727 cells, 1/5X
[16] = target: human transferrin receptor expressed by nonhematopoietic cancer cells (human) (UniProt P02786); test: FACS, SNU-16 cells, 1x
[17] = target: human transferrin receptor expressed by nonhematopoietic cancer cells (human) (UniProt P02786); test: FACS, COLO205 cells, 1x
[18] = target: human transferrin receptor expressed by nonhematopoietic cancer cells (human) (UniProt P02786); test: FACS, HEC-1-A cells, 1x
[19] = target: human transferrin receptor expressed by nonhematopoietic cancer cells (human) (UniProt P02786); test: FACS, NCI-N87 cells, 1x
[20] = target: human transferrin receptor expressed by nonhematopoietic cancer cells (human) (UniProt P02786); test: FACS, SK-OV-3 cells, 1x
[21] = target: human transferrin receptor expressed by nonhematopoietic cancer cells (human) (UniProt P02786); test: FACS, Kato III cells, 1x
[22] = target: human transferrin receptor expressed by nonhematopoietic cancer cells (human) (UniProt P02786); test: FACS, SNU-16 cells, 1/5X
[23] = target: human transferrin receptor expressed by nonhematopoietic cancer cells (human) (UniProt P02786); test: FACS, SU.86.86 cells, 1x
[24] = target: human transferrin receptor expressed by nonhematopoietic cancer cells (human) (UniProt P02786); test: FACS, COLO205 cells, 1/5X
[25] = target: human transferrin receptor expressed by nonhematopoietic cancer cells (human) (UniProt P02786); test: FACS, MDA-MB-453 cells, 1x
[26] = target: human transferrin receptor expressed by nonhematopoietic cancer cells (human) (UniProt P02786); test: FACS, Panc02.03B cells, 1x
[27] = target: human transferrin receptor expressed by nonhematopoietic cancer cells (human) (UniProt P02786); test: FACS, WiDr cells, 1X
[28] = target: human transferrin receptor expressed by nonhematopoietic cancer cells (human) (UniProt P02786); test: FACS, SNU-16 cells, 1X
[29] = target: human transferrin receptor expressed by nonhematopoietic cancer cells (human) (UniProt P02786); test: FACS, COLO205 cells, 1X
[30] = target: human transferrin receptor expressed by nonhematopoietic cancer cells (human) (UniProt P02786); test: FACS, NCI-N87 cells, 1X

Chain of human transferrin receptor expressed by nonhematopoietic cancer cells (human) (P02786 whole entry G142S): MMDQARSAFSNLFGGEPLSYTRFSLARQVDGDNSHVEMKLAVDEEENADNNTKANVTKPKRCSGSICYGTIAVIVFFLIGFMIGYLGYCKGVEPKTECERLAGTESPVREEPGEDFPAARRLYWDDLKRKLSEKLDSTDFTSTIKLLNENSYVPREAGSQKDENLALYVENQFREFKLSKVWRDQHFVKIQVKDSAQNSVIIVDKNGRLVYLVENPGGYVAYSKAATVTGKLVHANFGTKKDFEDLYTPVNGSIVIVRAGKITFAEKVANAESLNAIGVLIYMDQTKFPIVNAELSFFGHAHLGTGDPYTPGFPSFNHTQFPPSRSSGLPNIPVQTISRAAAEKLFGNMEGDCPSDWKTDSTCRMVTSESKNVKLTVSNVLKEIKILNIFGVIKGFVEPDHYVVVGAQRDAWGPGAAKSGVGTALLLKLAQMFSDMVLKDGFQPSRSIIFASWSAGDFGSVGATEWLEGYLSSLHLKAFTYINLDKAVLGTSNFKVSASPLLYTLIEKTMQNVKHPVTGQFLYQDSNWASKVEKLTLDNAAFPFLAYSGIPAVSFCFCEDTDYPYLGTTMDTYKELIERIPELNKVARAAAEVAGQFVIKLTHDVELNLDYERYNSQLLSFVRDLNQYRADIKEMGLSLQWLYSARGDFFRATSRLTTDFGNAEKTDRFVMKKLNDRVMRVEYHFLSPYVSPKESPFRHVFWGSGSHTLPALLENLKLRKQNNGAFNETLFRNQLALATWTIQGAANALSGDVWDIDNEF

MFI [1]: 897 MFI
MFI [2]: 2280 MFI
MFI [3]: 214 MFI
MFI [4]: 711 MFI
MFI [5]: 773 MFI
MFI [6]: 2280 MFI
MFI [7]: 2370 MFI
MFI [8]: 140 MFI
MFI [9]: 503 MFI
B1: antibody 55-31 (antibody, mouse IgM, V domains shown)
VH: QVQLQQPGAELVKPGTSVKLSCKASGYNFTSYWINWVKLRPGQGLEWIGDIYPGSGSTNYNEKFKSKATLTVDTSSSTAYMQLSSLASEDSALYYCARSAYRYDWFAYWGQGTLVTVSA
VL: DIQMTQSPASLSVSVGETVTITCRASENIYSNLAWYQQKQGKSPQLLVYAATNLADGVPSRFSGSGSGTQYSLKINSLQSEDFGSYYCQHFWGTPYTFGGGTKLEIKR
notes: Mouse IgM, kappa from a hybridoma; tested as hybridoma culture supernatant

MFI [10]: 623 MFI
MFI [11]: 2480 MFI
MFI [12]: 2500 MFI
MFI [13]: 51 MFI
MFI [14]: 3460 MFI
MFI [15]: 319 MFI
MFI [16]: 4150 MFI
MFI [17]: 6660 MFI
MFI [6]: 13 MFI
MFI [18]: 72 MFI
MFI [19]: 3940 MFI
MFI [20]: 467 MFI
MFI [21]: 613 MFI
MFI [22]: 5100 MFI
MFI [23]: 5070 MFI
MFI [24]: 6340 MFI
MFI [25]: 53 MFI
MFI [26]: 4690 MFI
B2: antibody 122-72 (antibody, V domains shown)
VH: EVQLVESGGGLVQPKGSLKLSCAASGFTFNTYAMNWVRQAPGKGLEWVARIRSKSNNYATYYADSVKDRFTISRDDSQSMLYLQMNNLKTEDTAMYYCVAYGSRNYWGQGTTLTVSS
VL: DIVMTQSPSSLTVTAGEKVTMSCKSSQSLLNSGNQKNYLTWYQQKPGQPPKLLIYWASTRESGVPDRFTGSGSGTDFTLTISSVQAEDLAVYYCQNDYSYPYTFGGGTKLEIKR
notes: Mouse IgM, kappa from a hybridoma; tested as hybridoma culture supernatant; Antibody 60-43 is said to have the same CDRs

MFI [27]: 1420 MFI
MFI [3]: 3140 MFI
MFI [28]: 4750 MFI
MFI [29]: 7090 MFI
MFI [30]: 5810 MFI
MFI [8]: 1410 MFI
MFI [22]: 3970 MFI
MFI [24]: 6160 MFI
B3: antibody 6-90 (antibody, mouse IgM, V domains shown)
VH: EVELQQFGIEMVKPGASVKISCKASGYIFTDYHMDWVRQSHGKSLEWIGDIDPKYDRVTYNQKFKGKASLTADKSSSTAYMELRSLTSEDTAVYYCAKTGAYGDYLAYWGQGTLVTVSA
VL: DLVMTQTPLSLPVSLGDQASISCRSSQSLVHSDGNTYFYWYLQKPGQSPKLLIYKVSNRFSGVPDRFSAGGSGTYFTLKISRVEAEDLGVYFCSQTTHFPPTFGGGTKLEIKR
notes: as for B1
